One assay deals with T1, αVβ3 integrin (Homo sapiens, UniProt P05106+P06756).
T1 construct: αVβ3 integrin purification from HUVE cell lysates was done as described in Pytela et al; endogenous in cells; host or cells: HUVE cells
Briefly: Integrin binding assay (ligand-receptor ELISA). To be noted: 1 μg/ml Cyr61 or 0.1 μg/ml vitronectin. As for the experimental part:
αVβ3 integrin purification from HUVE cell lysates was done as described in Pytela et al., Meth. Enzynmol., 144:475-489 (1987). Briefly, 10^8 cells were lysed in 1 ml of PBS containing 1 mM CaCl2, 1 mM MgCl2, 0.5 mM PMSF and 100 mM octylglucoside. […] The purity of the integrin was determined by SDS-PAGE under non-reducing conditions, followed by silver staining.
The integrin binding assay was developed in accordance with the disclosures in Brooks et al., Cell 85:683-693 (1996), and Lam, S. C-T (1992). […] Bound proteins were detected by specific polyclonal antisera (anti-Cyr61 antiserum was diluted 1:500 and anti-vitronectin antiserum was diluted 1:1000 in PBS containing 1 mM CaCl2, 1 mM MgCl2, and 5 mg/ml BSA) followed by a secondary antibody-horseradish peroxidase conjugate (1:20000 in the same buffer). […] Horseradish peroxidase (HRP) was detected with an HRP immunoassay kit (Bio-Rad Laboratories). The colorimetric reaction was developed for 15-30 minutes at room temperature, stopped by the addition of H2SO4, and the absorbance at 450 nm was measured. […]

The subject of another assay is Limb mesenchymal cells. The experiment in a line: Limb bud mesenchymal cell attachment. Type of assay: cell-based, mouse. Particulars: within 1 hour of plating. As for the experimental part: Cyr61, fibronectin (Gibco), or tenascin (Gibco) were diluted in 0.1% protease-free bovine serum albumin (BSA) in PBS with 0.5 mM PMSF, to a final concentrations of 10 or 50 μg/ml. A 10 μl drop/well was placed in a non-tissue culture treated 24-well plate (Corning), and incubated at room temperature for 2 hours. The wells were blocked with 1% BSA in PBS for 1 hour at room temperature, and rinsed with serum-free MEM (Modified Eagle's Medium). Limb mesenchymal cells, suspended at 5×10^5 cell/ml in serum-free MEM, were added at a volume of 400 μl/well, and incubated at 37° C., 5% CO2 for 1 or 3 hours. At each time point, the cell suspension was removed, the wells were rinsed with MEM and the remaining adherent cells were photographed.

Assay [1] relates to Bovine aortic smooth muscle cells (BASM cells). Briefly: Smooth muscle cell adhesion assay. Type of assay: cell-based. As for the experimental part:
Cell adhesion assays were also performed on smooth muscle cells. Bovine aortic smooth muscle cells (BASM cells) were subjected to the cell adhesion assay described above in the context of assaying fibroblasts. […] To identify particular integrin, receptors mediating the Cyr61 induction of BASM cell adhesion, antibody studies were conducted using anti-integrin antibodies recognizing specific integrins. […] Thus, integrin α6β1 mediates Cyr61-induced adhesion of smooth muscle cells. It is expected that Cyr61 polypeptides that include the heparan binding domain IV will induce adhesion of any mammalian smooth muscle cell.

The next assay concerns Focal Adhesion Kinase. Briefly: Focal adhesion induction. Type of assay: cell-based. From the text: In addition, Cyr61 induces focal adhesion, i.e., cell surface foci for cytoskeletal attachments. Focal adhesion is effected by cell surface protein complexes or clusters. These protein clusters are complex, including a variety of receptors from the integrin family, and a variety of protein kinases. The induction of focal adhesion by Cyr61 is reflected in the capacity of Cyr61 to induce particular members of these cell surface protein clusters. […] Moreover, indirect immunofluorescence studies have shown that Cyr61 is bound to a receptor (see above) in focal adhesive plaques. The plaques, in turn, are characteristic of focal adhesion protein complexes. Focal Adhesion Kinase, Paxillin, and αVβ3 Integrin are co-localized to the focal adhesion plaques produced by focal adhesion complex formation induced by Cyr61. These focal adhesion protein complexes bind Cyr61 at the cell surface; the complexes also attach internally to the cytoskeleton. Therefore, murine Cyr61, and human Cyr61 (see below), are, in part, adhesion molecules, a characteristic distinguishing Cyr61 from conventional growth factors. […] Subsequently, bound Cyr61 is detected, e.g., by anti-Cyr61 antibody that is labeled using techniques known in the art, such as radiolabelling, fluorescent labeling, or the use of enzymes catalyzing calorimetric reactions. […]

T1 sequence (P06756 31-889 limits assumed): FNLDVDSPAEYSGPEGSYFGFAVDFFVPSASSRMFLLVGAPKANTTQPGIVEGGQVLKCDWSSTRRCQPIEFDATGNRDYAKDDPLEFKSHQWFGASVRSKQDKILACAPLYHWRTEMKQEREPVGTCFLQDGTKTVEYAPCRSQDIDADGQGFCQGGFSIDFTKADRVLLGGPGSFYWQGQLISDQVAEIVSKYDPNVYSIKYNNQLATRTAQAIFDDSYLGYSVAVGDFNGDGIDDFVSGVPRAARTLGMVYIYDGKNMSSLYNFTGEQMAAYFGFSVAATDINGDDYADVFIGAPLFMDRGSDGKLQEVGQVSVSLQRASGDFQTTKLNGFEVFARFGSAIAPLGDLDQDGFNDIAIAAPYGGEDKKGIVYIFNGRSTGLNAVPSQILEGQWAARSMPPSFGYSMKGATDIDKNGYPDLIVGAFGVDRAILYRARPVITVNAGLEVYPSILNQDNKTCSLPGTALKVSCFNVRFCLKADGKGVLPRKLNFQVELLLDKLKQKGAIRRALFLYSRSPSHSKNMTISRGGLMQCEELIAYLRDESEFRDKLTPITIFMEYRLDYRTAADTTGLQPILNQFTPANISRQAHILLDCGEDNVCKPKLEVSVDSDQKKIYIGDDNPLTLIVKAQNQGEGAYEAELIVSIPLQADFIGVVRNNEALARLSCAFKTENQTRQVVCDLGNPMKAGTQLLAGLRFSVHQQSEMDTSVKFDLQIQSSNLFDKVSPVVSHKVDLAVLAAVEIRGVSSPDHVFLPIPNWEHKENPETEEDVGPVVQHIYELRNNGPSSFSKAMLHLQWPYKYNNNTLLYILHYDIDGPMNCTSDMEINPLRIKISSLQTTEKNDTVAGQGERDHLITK
T1 sequence (P06756 891-1048 partner limits assumed): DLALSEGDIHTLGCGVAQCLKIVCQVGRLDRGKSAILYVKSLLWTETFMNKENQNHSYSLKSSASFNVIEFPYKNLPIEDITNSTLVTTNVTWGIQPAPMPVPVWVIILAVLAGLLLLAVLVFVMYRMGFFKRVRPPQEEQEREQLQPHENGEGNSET
T1 sequence (P05106 27-788): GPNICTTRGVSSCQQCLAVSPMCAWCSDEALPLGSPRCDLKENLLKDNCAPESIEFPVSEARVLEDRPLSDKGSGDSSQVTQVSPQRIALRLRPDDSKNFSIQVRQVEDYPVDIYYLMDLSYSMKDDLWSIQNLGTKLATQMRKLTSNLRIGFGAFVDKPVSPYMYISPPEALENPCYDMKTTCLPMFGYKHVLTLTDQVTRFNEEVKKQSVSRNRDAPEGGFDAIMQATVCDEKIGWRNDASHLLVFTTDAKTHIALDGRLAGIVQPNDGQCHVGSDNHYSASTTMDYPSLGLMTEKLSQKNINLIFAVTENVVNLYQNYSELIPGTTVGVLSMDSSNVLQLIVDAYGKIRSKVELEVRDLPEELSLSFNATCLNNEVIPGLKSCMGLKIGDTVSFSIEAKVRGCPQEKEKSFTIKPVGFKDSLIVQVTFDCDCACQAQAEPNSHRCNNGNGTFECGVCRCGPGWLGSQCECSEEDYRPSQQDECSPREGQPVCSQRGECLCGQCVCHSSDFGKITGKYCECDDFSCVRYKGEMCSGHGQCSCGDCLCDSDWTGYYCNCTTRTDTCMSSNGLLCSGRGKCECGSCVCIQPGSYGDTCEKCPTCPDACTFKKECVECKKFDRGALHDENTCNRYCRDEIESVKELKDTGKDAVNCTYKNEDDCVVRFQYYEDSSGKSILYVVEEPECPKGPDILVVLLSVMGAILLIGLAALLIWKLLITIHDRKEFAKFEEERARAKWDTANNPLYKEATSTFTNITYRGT

B1: Cyr61: Cysteine-rich ECM signaling protein; murine sequence SEQ ID NO:2, recombinant from Baculovirus-infected Sf9 cells (protein, listed as Mus musculus)
chain: MSSSTFRTLAVAVTLLHLTRLALSTCPAACHCPLEAPKCAPGVGLVRDGCGCCKVCAKQLNEDCSKTQPCDHTKGLECNFGASSTALKGICRAQSEGRPCEYNSRIYQNGESFQPNCKHQCTCIDGAVGCIPLCPQELSLPNLGCPNPRLVKVSGQCCEEWVCDEDSIKDSLDDQDDLLGLDASEVELTRNNELIAIGKGSSLKRLPVFGTEPRVLFNPLHAHGQKCIVQTTSWSQCSKSCGTGISTRVTNDNPECRLVKETRICEVRPCGQPVYSSLKKGKKCSKTKKSPEPVRFTYAGCSSVKKYRPKYCGSCVDGRCCTPLQTRTVKMRFRCEDGEMFSKNVMMIQSCKCNYNCPHPNEASFRLYSLFNDIHKFRD
For B1, the “binding to immobilized αVβ3 integrin” value in the assay with αVβ3 integrin was “bound to the immobilized integrin”. Moreover, the “attachment morphology of limb mesenchymal cells” value in the assay with Limb mesenchymal cells is “adhered as clusters of rounded cells”. In addition, the “adhesion of BASM cells” value in assay [1] is given as “induced adhesion of BASM cells”. Further, the “phosphorylation of focal adhesion proteins” value in the assay with Focal Adhesion Kinase was “induces the phosphorylation of Focal Adhesion Kinase”.

These data come from US7521540B2, “CYR61 compositions and methods” (Munin Corporation, priority 1996, dated 2009).
